This assay deals with parental cyclophilin A (CypA) (rhesus macaque; identical in sequence to human CypA) (UniProt P62940). Briefly: ITC.

Usually Kd stands for a measure of binding affinity in units of concentration. As to “HIV-1 N-terminal capsid (CA^N) domain (domain or fragment)”, the dissociation constant (Kd) was 5 µM and the dH is -6.05 kcal/mol.

For the substance “HIV-2 CA^N domain with CA Ala88 introduced (from UniProt P04590 136-279) (domain or fragment)”, the Kd is 8 µM.
